Test results: patent publication US20160114035A1 (published 2016)
Where two headings read alike, the source gives them in different places.

Columns and labels:
Assay in all cases: binding to purified HLA
DRB1*0301 [1] = target: DRB1*0301
DRB1*0101 [2] = target: DRB1*0101
DRB1*1101 [3] = target: DRB1*1101
DRB5*0101 [4] = target: DRB5*0101
DRB1*0405 [5] = target: DRB1*0405
DRB1*1302 [6] = target: DRB1*1302
DRB1*0701 [7] = target: DRB1*0701
DRB1*0901 [8] = target: DRB1*0901
DRB1*0802 [9] = target: DRB1*0802
DRB1*0404 [10] = target: DRB1*0404
DRB4*0101 [11] = target: DRB4*0101
DRB1*1501 [12] = target: DRB1*1501
DRB1*0401 [13] = target: DRB1*0401
DRB1*0301 [14] = target: DRB1*0301; remark: listed apart in the source
DRB1*0101 [15] = target: DRB1*0101; remark: listed apart in the source
DRB1*1101 [16] = target: DRB1*1101; remark: listed apart in the source
DRB5*0101 [17] = target: DRB5*0101; remark: listed apart in the source
DRB1*0405 [18] = target: DRB1*0405; remark: listed apart in the source
DRB1*1302 [19] = target: DRB1*1302; remark: listed apart in the source
DRB1*0701 [20] = target: DRB1*0701; remark: listed apart in the source
DRB1*0901 [21] = target: DRB1*0901; remark: listed apart in the source
DRB1*0802 [22] = target: DRB1*0802; remark: listed apart in the source
DRB1*0404 [23] = target: DRB1*0404; remark: listed apart in the source
DRB4*0101 [24] = target: DRB4*0101; remark: listed apart in the source
DRB1*1501 [25] = target: DRB1*1501; remark: listed apart in the source
DRB1*0401 [26] = target: DRB1*0401; remark: listed apart in the source

Row | Binder | IC50 (DRB1*0301 [1]) [nM] | IC50 (DRB1*0101 [2]) [nM] | IC50 (DRB1*1101 [3]) [nM] | IC50 (DRB5*0101 [4]) [nM] | IC50 (DRB1*0405 [5]) [nM] | IC50 (DRB1*1302 [6]) [nM] | IC50 (DRB1*0701 [7]) [nM] | IC50 (DRB1*0301 [14]) [nM] | IC50 (DRB1*0101 [15]) [nM] | IC50 (DRB1*1101 [16]) [nM] | IC50 (DRB5*0101 [17]) [nM] | IC50 (DRB1*0405 [18]) [nM] | IC50 (DRB1*1302 [19]) [nM] | IC50 (DRB1*0701 [20]) [nM] | IC50 (DRB1*0901 [21]) [nM] | IC50 (DRB1*0802 [22]) [nM] | IC50 (DRB1*0404 [23]) [nM] | IC50 (DRB4*0101 [24]) [nM] | IC50 (DRB1*1501 [25]) [nM] | IC50 (DRB1*0401 [26]) [nM] | also measured
1 | AAAHFVAAFTLKAEA [H4.F9.E14] | 855 | 6.8 | 41 | 19 | 8.1 | 801 | 49 | – | – | – | – | – | – | – | – | – | – | – | – | – | IC50 (DRB1*0901 [8]): 46 nM; IC50 (DRB1*0802 [9]): 19 nM; IC50 (DRB1*0404 [10]): 8.1 nM; IC50 (DRB4*0101 [11]): 526 nM; IC50 (DRB1*1501 [12]): 31 nM; IC50 (DRB1*0401 [13]): 6.4 nM
2 | AAAWFVAANTLHAAA [W4.N9.H12] | – | – | – | – | – | – | – | 174 | 3.8 | 16 | 22 | 21 | 38 | 43 | 33 | 8.6 | 5.5 | 606 | 101 | 2.9 | –
3 | AAAFFVAANTLKADA [F4.N9.D14] | – | – | – | – | – | – | – | 140 | 3.4 | 46 | 4.4 | 9.5 | 187 | 74 | 18 | 16 | 4.5 | 5520 | 103 | 4 | –
4 | AAAFFVAANTLHAAA [F4.N9.H12] | – | – | – | – | – | – | – | 286 | 6.5 | 42 | 26 | 27 | 64 | 82 | 31 | 28 | 4.1 | 876 | 70 | 3.8 | –
5 | AAAEFVAAYTLHAAA [E4.Y9.H12] | 144 | 3.9 | 27 | 52 | 17 | 1450 | 161 | – | – | – | – | – | – | – | – | – | – | – | – | – | IC50 (DRB1*0901 [8]): 28 nM; IC50 (DRB1*0802 [9]): 13 nM; IC50 (DRB1*0404 [10]): 3.2 nM; IC50 (DRB4*0101 [11]): 448 nM; IC50 (DRB1*1501 [12]): 6.9 nM; IC50 (DRB1*0401 [13]): 2.3 nM
6 | AAAKFVAAWTLKAAA [SEQ ID NO: 4] | – | – | – | – | – | – | – | 209 | 3.3 | 11 | 5.4 | 25 | 648 | 49 | 28 | 5.2 | 2.9 | 207 | 9.8 | 2.6 | –
7 | AAAEFVAAWTLHAAA [E4.H12] | 134 | 5.1 | 38 | 48 | 27 | 1150 | 97 | – | – | – | – | – | – | – | – | – | – | – | – | – | IC50 (DRB1*0901 [8]): 44 nM; IC50 (DRB1*0802 [9]): 24 nM; IC50 (DRB1*0404 [10]): 4.1 nM; IC50 (DRB4*0101 [11]): 350 nM; IC50 (DRB1*1501 [12]): 51 nM; IC50 (DRB1*0401 [13]): 3.1 nM
8 | AAAHFVAAWTLHAAA [H4.H12] | – | – | – | – | – | – | – | 198 | 4.2 | 14 | 23 | 12 | 1190 | 53 | 21 | 9.3 | 2.5 | 267 | 12 | 2.5 | –
9 | AAAYFVAAFTLHAAA [Y4.F9.H12] | – | – | – | – | – | – | – | 126 | 3.4 | 17 | 18 | 4.4 | 2560 | 78 | 13 | 5.9 | 0.67 | 81 | 16 | 1 | –

More lines, main results first:

Row | IC50 (DRB1*0301 [1]) [nM] | IC50 (DRB1*0101 [2]) [nM] | IC50 (DRB1*1101 [3]) [nM] | IC50 (DRB5*0101 [4]) [nM] | IC50 (DRB1*0405 [5]) [nM] | IC50 (DRB1*1302 [6]) [nM] | IC50 (DRB1*0701 [7]) [nM] | IC50 (DRB1*0301 [14]) [nM] | IC50 (DRB1*0101 [15]) [nM] | IC50 (DRB1*1101 [16]) [nM] | IC50 (DRB5*0101 [17]) [nM] | IC50 (DRB1*0405 [18]) [nM] | IC50 (DRB1*1302 [19]) [nM] | IC50 (DRB1*0701 [20]) [nM] | IC50 (DRB1*0901 [21]) [nM] | IC50 (DRB1*0802 [22]) [nM] | IC50 (DRB1*0404 [23]) [nM] | IC50 (DRB4*0101 [24]) [nM] | IC50 (DRB1*1501 [25]) [nM] | IC50 (DRB1*0401 [26]) [nM] | Binder | also measured
10 | 361 | 4.1 | 22 | 33 | 18 | 47 | 76 | – | – | – | – | – | – | – | – | – | – | – | – | – | AAAHFVAANTLHAAA [H4.N9.H12] | IC50 (DRB1*0901 [8]): 37 nM; IC50 (DRB1*0802 [9]): 17 nM; IC50 (DRB1*0404 [10]): 6.8 nM; IC50 (DRB4*0101 [11]): 862 nM; IC50 (DRB1*1501 [12]): 79 nM; IC50 (DRB1*0401 [13]): 4.5 nM
11 | 171 | 2.7 | 16 | 20 | 19 | 1420 | 67 | – | – | – | – | – | – | – | – | – | – | – | – | – | AAANFVAAYTLHAAA [N4.Y9.H12] | IC50 (DRB1*0901 [8]): 25 nM; IC50 (DRB1*0802 [9]): 7.5 nM; IC50 (DRB1*0404 [10]): 5.2 nM; IC50 (DRB4*0101 [11]): 567 nM; IC50 (DRB1*1501 [12]): 4.2 nM; IC50 (DRB1*0401 [13]): 1.8 nM
12 | – | – | – | – | – | – | – | 130 | 4.5 | 14 | 16 | 13 | 54 | 49 | 21 | 12 | 5.2 | 703 | 53 | 3.3 | AAAYFVAANTLHAAA [Y4.N9.H12] | –
13 | – | – | – | – | – | – | – | 119 | 3.7 | 18 | 15 | 6.9 | 1560 | 55 | 18 | 9.7 | 2.6 | 279 | 16 | 2.6 | AAAYFVAAWTLHAAA [Y4.H12] | –
